Experimental data reported in paper PMC12669767.

T1: YFP-NEDD4, P46934
T1 chain: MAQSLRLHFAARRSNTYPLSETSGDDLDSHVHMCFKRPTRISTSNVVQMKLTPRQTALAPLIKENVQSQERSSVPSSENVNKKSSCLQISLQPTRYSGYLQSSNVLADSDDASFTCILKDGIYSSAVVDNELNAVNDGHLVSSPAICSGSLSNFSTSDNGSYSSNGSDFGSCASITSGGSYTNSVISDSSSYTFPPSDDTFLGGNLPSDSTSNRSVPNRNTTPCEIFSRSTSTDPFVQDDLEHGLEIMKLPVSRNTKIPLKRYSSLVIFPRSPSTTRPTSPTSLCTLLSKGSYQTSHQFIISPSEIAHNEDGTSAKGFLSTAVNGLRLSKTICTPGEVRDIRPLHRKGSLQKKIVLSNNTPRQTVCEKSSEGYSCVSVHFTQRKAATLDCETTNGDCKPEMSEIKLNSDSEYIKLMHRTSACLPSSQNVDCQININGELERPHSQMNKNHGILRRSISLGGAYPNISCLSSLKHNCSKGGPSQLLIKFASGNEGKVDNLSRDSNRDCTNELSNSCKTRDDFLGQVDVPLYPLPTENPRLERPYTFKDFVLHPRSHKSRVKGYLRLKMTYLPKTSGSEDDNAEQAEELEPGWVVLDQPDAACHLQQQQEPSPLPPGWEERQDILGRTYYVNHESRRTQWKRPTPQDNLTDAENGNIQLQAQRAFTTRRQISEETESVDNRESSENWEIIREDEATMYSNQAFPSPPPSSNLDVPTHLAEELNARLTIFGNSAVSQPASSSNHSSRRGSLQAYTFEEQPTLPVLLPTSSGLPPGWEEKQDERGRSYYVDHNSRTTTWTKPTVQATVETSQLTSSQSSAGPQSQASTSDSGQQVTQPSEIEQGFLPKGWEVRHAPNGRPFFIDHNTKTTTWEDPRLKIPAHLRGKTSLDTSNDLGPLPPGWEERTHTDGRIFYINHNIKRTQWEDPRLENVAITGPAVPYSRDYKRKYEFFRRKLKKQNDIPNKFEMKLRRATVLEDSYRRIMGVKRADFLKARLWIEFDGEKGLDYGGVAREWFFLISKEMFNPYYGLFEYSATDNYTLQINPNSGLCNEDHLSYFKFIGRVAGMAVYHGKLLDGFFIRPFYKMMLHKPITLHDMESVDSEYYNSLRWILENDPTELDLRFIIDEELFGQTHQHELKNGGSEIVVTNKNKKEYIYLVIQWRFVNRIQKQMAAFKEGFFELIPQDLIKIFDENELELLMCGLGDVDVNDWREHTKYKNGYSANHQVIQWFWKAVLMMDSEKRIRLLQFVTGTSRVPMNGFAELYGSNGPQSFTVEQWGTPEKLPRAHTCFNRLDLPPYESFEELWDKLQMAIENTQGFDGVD


Biological target: T1, YFP-NEDD4, P46934
Experiment: bead binding assay, fluorescence microscopy of YFP-NEDD4 on ALFA-TXNIP beads
Details: chain shown with the change, value is the box-plot median, n = 40 beads, lysate of HEK293T cells over-expressing YFP-NEDD4, ctrl beads est. 20, parent: est. 38, read off a plot

Binder	response (printed p=0.2365 against ALFA-TXNIP) [A.U]	response (printed p<0.0001 against ALFA-TXNIP) [A.U]
ALFA-tagged TXNIP (thioredoxin interacting protein), expressed in HEK293T, Q9H3M7 PPCY331AACA (protein) MVMFKKIKSFEVVFNDPEKVYGSGEKVAGRVIVEVCEVTRVKAVRILACGVAKVLWMQGSQQCKQTSEYLRYEDTLLLEDQPTGENEMVIMRPGNKYEYKFGFELPQGPLGTSFKGKYGCVDYWVKAFLDRPSQPTQETKKNFEVVDLVDVNTPDLMAPVSAKKEKKVSCMFIPDGRVSVSARIDRKGFCEGDEISIHADFENTCSRIVVPKAAIVARHTYLANGQTKVLTQKLSSVRGNHIISGTCASWRGKSLRVQKIRPSILGCNILRVEYSLLIYVSVPGSKKVILDLPLVIGSRSGLSSRTSSMASRTSSEMSWVDLNIPDTPEAAACAMDVIPEDHRLESPTTPLLDDMDGSQDSPIFMYAPEFKFMPPPTYTEVDPCILNNNVQ	35	
ALFA-tagged TXNIP (thioredoxin interacting protein), expressed in HEK293T, Q9H3M7 PPCY331AACA; PPTY375AATA (protein) MVMFKKIKSFEVVFNDPEKVYGSGEKVAGRVIVEVCEVTRVKAVRILACGVAKVLWMQGSQQCKQTSEYLRYEDTLLLEDQPTGENEMVIMRPGNKYEYKFGFELPQGPLGTSFKGKYGCVDYWVKAFLDRPSQPTQETKKNFEVVDLVDVNTPDLMAPVSAKKEKKVSCMFIPDGRVSVSARIDRKGFCEGDEISIHADFENTCSRIVVPKAAIVARHTYLANGQTKVLTQKLSSVRGNHIISGTCASWRGKSLRVQKIRPSILGCNILRVEYSLLIYVSVPGSKKVILDLPLVIGSRSGLSSRTSSMASRTSSEMSWVDLNIPDTPEAAACAMDVIPEDHRLESPTTPLLDDMDGSQDSPIFMYAPEFKFMPAATATEVDPCILNNNVQ		19
